The values below come from article PMC11866011.

Assay [1] addresses EncA-157ST (Myxococcus xanthus encapsulin shell protein EncA with the SpyTag peptide inserted between residues 157 and 158) (Myxococcus xanthus | Streptococcus pyogenes) (UniProt Q1D6H4). The assay can be described thus: negative-stain TEM; purified empty (unloaded) nanocompartments, 0.01-0.03 mg/mL, uranyl acetate 0.5% stain; subunit number read from the particle diameter.
Assay [2] shares this target. Description: negative-stain TEM; purified nanocompartments loaded with sfGFP-CLP (coexpressed), 0.01-0.03 mg/mL, uranyl acetate 0.5% stain; subunit number read from the particle diameter.
Assay [3] has as its target EncA-ST (Myxococcus xanthus encapsulin shell protein EncA with the SpyTag peptide fused to its C-terminus) (Myxococcus xanthus | Streptococcus pyogenes). Description: negative-stain TEM; purified empty (unloaded) nanocompartments, 0.01-0.03 mg/mL, uranyl acetate 0.5% stain; subunit number read from the particle diameter.
The target is the same in assay [4]. The assay can be described thus: negative-stain TEM; purified nanocompartments loaded with sfGFP-CLP (coexpressed), 0.01-0.03 mg/mL, uranyl acetate 0.5% stain; subunit number read from the particle diameter.

As to “EncA-157ST (Myxococcus xanthus encapsulin shell protein EncA with the SpyTag peptide inserted between residues 157 and 158) (from UniProt Q1D6H4 1-157; Q1D6H4 158-287)”, the stoichiometry N – broadly, the number of molecules, sites or subunits per partner or assembly – is 60 subunits in assay [1] and 180 subunits in assay [2].

As to “EncA-ST (Myxococcus xanthus encapsulin shell protein EncA with the SpyTag peptide fused to its C-terminus)”, the stoichiometry N in assay [3] stood at 60 subunits; in assay [4], 180 subunits.
